Results: US7662770

Biological target: EphA2 receptor tyrosine kinase, endogenous in MCF-10A and MDA-MB-231 human mammary epithelial cells (UniProt P29317)
Sequence of UniProt P29317 (P29317 whole entry, looked up): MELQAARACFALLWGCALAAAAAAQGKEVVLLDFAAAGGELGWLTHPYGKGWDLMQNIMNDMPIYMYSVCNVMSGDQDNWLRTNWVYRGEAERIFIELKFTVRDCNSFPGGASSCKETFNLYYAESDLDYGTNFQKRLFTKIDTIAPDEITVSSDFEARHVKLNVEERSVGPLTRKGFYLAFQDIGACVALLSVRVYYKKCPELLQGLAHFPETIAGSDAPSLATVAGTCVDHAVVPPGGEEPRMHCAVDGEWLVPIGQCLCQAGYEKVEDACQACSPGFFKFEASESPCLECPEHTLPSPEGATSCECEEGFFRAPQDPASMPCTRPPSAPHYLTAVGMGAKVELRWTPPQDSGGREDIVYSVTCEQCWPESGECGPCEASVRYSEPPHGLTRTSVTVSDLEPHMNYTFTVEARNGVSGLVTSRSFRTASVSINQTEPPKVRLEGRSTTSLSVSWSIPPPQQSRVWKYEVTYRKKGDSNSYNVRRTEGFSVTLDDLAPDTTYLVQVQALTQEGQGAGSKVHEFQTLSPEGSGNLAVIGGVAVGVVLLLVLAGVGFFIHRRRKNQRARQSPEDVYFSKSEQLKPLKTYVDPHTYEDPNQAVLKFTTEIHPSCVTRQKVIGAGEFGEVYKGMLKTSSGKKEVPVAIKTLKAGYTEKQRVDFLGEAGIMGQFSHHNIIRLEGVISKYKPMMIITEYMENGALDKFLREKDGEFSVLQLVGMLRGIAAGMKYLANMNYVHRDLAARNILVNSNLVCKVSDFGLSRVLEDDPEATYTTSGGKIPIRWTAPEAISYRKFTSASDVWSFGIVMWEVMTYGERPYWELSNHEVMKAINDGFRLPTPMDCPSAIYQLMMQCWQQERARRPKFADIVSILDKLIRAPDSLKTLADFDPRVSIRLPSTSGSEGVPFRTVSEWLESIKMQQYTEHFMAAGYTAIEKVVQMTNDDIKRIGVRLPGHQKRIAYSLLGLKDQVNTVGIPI

purified LMW-PTP protein (used in the in vitro dephosphorylation assays)
dephosphorylation of immunoprecipitated EphA2 (Western blot with PY20 and 4G10): purified LMW-PTP could dephosphorylate EphA2 in a dose and time-dependent manner
